Measurements from paper doi:10.1101/2025.02.05.636725, “DHRS7 Integrates NADP^+/NADPH Redox Sensing with Inflammatory Lipid Signalling via the Oxoeicosanoid Pathway” (bioRxiv, 2025).

B1: hs DHRS7 (Homo sapiens) (protein)
chain: MNWELLLWLLVLCALLLLLVQLLRFLRADGDLTLLWAEWQGRRPEWELTDMVVWVTGASSGIGEELAYQLSKLGVSLVLSARRVHELERVKRRCLENGNLKEKDILVLPLDLTDTGSHEAATKAVLQEFGRIDILVNNGGMSQRSLCMDTSLDVYRKLIELNYLGTVSLTKCVLPHMIERKQGKIVTVNSILGIISVPLSIGYCASKHALRGFFNGLRTELATYPGIIVSNICPGPVQSNIVENSLAGEVTKTIGNNGDQSHKMTTSRCVRLMLISMANDLKEVWISEQPFLLVTYLWQYMPTWAWWITNKMGKKRIENFKSGVDADSSYFKIFKTKHD
notes: DHRS7-eGFP fusion (pSBtet-eGFP vector, doxycycline-induced) in microsomes of HEK293T DHRS7-knockout cells
B2: dr Dhrs7 (Danio rerio) (protein)
chain: MDICWLCVGLAGTAVYLLVQFIRFIFADADLTLLWAARFGKTPESTFRGKVVWITGASSGIGEELSLQLAAIGARLVLSARRENELERVKRLCLERSSLKAEDILVLPLDLMDRASHPEKTTAALEHFGEIDVLINNGGRSQRALCVDADVDVYQALMELNYLGTVSITKQVLPHMIQRGTGIIATVSSVAGFVGVPLATGYAASKHALQGFFNSLRTELSDCPNILISNICPGPVISSIVQNAFTEELGKPVATAGDQTHKMSTERCVHLTLVGLANRVKEMWIAEQPFLLFCYVWQYTPTLAWYLTNVLGKKRVQNFKAGVDADAAYFSKPKAKTS
notes: Dhrs7-eGFP fusion (pSBtet-eGFP vector, doxycycline-induced) in microsomes of human HEK293T DHRS7-knockout cells

What was measured:
[1] = substrate: NC(=O)c1ccc[n+]([C@@H]2O[C@H](COP(=O)(O)OP(=O)(O)OC[C@H]3O[C@@H](n4cnc5c(N)ncnc54)[C@H](OP(=O)(O)O)[C@@H]3O)[C@@H](O)[C@H]2O)c1; experiment: NADPH fluorescence, plate reader, Michaelis-Menten fit of initial velocities; assay type: cell-based, Homo sapiens; conditions: microsomes of overexpressing HEK293T DHRS7-KO cells, 5(S)-HETE in excess, pH 7.5, 37 °C, apparent (pseudo-first order), eGFP fusion, varied: cofactor
[2] = substrate: CCCCC/C=C\C/C=C\C/C=C\C=C\[C@@H](O)CCCC(=O)O; experiment: cells, lysate or membranes; conditions: microsomes of overexpressing HEK293T DHRS7-KO cells, NADP+ in excess, pH 7.5, 37 °C, apparent (pseudo-first order), eGFP fusion
[3] = substrate: NC(=O)c1ccc[n+]([C@@H]2O[C@H](COP(=O)(O)OP(=O)(O)OC[C@H]3O[C@@H](n4cnc5c(N)ncnc54)[C@H](OP(=O)(O)O)[C@@H]3O)[C@@H](O)[C@H]2O)c1; experiment: NADPH fluorescence, plate reader, Michaelis-Menten fit of initial velocities; assay type: cell-based, Danio rerio; conditions: microsomes of overexpressing HEK293T DHRS7-KO cells, 5(S)-HETE in excess, pH 7.5, 37 °C, apparent (pseudo-first order), eGFP fusion, varied: cofactor

Protein	Km [1]	Km [2]	Km [3]
B1	0.62 (95% CI: [0.39, 0.97]) μM	0.78 (95% CI: [0.43, 1.13]) μM	
B2		1.4 (95% CI: [1.1, 1.7]) μM	0.63 (95% CI: [0.24, 1.03]) μM
